Laboratory results as given in doi:10.1101/2021.02.19.432017 (bioRxiv, 2021).
Blank lines part the entries; values can stand above or below the binder they belong to.

B1: Ras suppressor-1 (Rsu-1), wild type (natural protein)
chain: MSKSLKKLVEESREKNQPEVDMSDRGISNMLDVNGLFTLSHITQLVLSHNKLTMVPPNIAELKNLEVLNFFNNQIEELPTQISSLQKLKHLNLGMNRLNTLPRGFGSLPALEVLDLTYNNLSENSLPGNFFYLTTLRALYLSDNDFEILPPDIGKLTKLQILSLRDNDLISLPKEIGELTQLKELHIQGNRLTVLPPELGNLDLTGQKQVFKAENNPWVTPIADQFQLGVSHVFEYIRSETYKYLYGRHMQANPEPPKKNNDKSKKISRKPLAAKNR

Assays:
Assay in all cases: SEC
[1] = molecular target: PINCH-1 (residues 1-325), subunit of the IPP complex (human, UniProt P48059 1-325)
Sequence of PINCH-1 (residues 1-325), subunit of the IPP complex (P48059 whole entry, the tested form may be a part, one chain of several): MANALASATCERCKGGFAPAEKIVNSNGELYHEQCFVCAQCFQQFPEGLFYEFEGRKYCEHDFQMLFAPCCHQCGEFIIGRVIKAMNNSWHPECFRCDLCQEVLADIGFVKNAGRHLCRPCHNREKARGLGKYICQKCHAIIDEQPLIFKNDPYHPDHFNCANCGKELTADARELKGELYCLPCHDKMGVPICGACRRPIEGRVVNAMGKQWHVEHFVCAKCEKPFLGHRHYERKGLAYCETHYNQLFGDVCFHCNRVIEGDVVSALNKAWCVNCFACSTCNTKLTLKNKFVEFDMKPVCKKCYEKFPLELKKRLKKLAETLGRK

[2] = molecular target: B1
Kindlin-2 = molecular target: T1, Kindlin-2 (human, UniProt Q96AC1 1-680)
T1 sequence: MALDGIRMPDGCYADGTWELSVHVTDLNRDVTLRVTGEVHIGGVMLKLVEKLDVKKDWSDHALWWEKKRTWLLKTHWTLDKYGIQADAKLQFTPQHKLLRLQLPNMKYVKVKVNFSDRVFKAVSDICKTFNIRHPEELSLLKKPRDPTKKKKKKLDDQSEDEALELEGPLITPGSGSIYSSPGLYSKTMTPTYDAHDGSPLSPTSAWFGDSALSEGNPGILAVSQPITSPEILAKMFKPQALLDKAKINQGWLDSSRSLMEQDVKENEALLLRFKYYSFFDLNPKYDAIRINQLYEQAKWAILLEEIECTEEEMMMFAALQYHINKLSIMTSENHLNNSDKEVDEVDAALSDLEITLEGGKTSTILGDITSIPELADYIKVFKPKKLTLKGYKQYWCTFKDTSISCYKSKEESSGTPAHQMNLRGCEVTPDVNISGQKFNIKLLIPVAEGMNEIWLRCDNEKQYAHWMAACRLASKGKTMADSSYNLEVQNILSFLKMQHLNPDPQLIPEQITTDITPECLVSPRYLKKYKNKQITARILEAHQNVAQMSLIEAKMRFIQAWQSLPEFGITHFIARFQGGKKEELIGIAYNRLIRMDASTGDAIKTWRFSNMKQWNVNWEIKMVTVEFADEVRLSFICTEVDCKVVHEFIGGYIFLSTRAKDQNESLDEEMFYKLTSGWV

Binder: B1
binding result [1]: binds

binding result [2]: binds
B2: PINCH-2 LIM5S (size exclusion) (domain or fragment)
chain: GDVCYNCSHVIEGDVVSALNKAWCVSCFSCSTCNSKLTLKNKFVEFDMKPVCKRCYEKFPLELKKRLKKLSELTSRK

binding result (Kindlin-2): binds
B3: Integrin linked kinase (ILK), subunit of the IPP complex (natural protein)
chain: MDDIFTQCREGNAVAVRLWLDNTENDLNQGDDHGFSPLHWACREGRSAVVEMLIMRGARINVMNRGDDTPLHLAASHGHRDIVQKLLQYKADINAVNEHGNVPLHYACFWGQDQVAEDLVANGALVSICNKYGEMPVDKAKAPLRELLRERAEKMGQNLNRIPYKDTFWKGTTRTRPRNGTLNKHSGIDFKQLNFLTKLNENHSGELWKGRWQGNDIVVKVLKVRDWSTRKSRDFNEECPRLRIFSHPNVLPVLGACQSPPAPHPTLITHWMPYGSLYNVLHEGTNFVVDQSQAVKFALDMARGMAFLHTLEPLIPRHALNSRSVMIDEDMTARISMADVKFSFQCPGRMYAPAWVAPEALQKKPEDTNRRSADMWSFAVLLWELVTREVPFADLSNMEIGMKVALEGLRPTIPPGISPHVCKLMKICMNEDPAKRPKFDMIVPILEKMQDK
